Reference: US20210371878A1

How the values were obtained:
[1] = biological target: C-intein of DnaE from Nostoc punctiforme fused to the C-terminal half of EGFP, 3xflag (product of pAAV2.1-CMV-3' EGFP intein) (Nostoc punctiforme); assay: cell-based or functional assay
[2] = biological target: C-intein of Npu DnaE fused to 3' ABCA4 (set 1, from Cys1150), 3xflag (product of pzac-CMV260-3' ABCA4 intein) (Nostoc punctiforme; human) (UniProt P78363); assay: cell-based or functional assay

N-terminal half of EGFP fused to the N-intein of DnaE from Nostoc punctiforme, 3xflag (product of pAAV2.1-CMV-5' EGFP intein)
EGFP protein amount by Western blot band intensity, relative to a single AAV plasmid [1]: 76%

5' ABCA4 (set 1, split at Cys1150) fused to the N-intein of Npu DnaE, 3xflag (product of pzac-CMV260-5' ABCA4 intein) (from UniProt P78363 1-1150)
Full-length ABCA4 by Western blot band intensity, relative to the single AAV plasmid (HEK293, set 1) [2]: 61%
